Measured values from patent publication US20240350646A1, “METHODS AND COMPOSITIONS FOR DELIVERY TO AND ACROSS THE BLOOD BRAIN BARRIER” (NUtech Ventures, priority 2021, published 2024).

T1: human claudin-3 (Homo sapiens, UniProt O15551)
T1 sequence (O15551 1-220): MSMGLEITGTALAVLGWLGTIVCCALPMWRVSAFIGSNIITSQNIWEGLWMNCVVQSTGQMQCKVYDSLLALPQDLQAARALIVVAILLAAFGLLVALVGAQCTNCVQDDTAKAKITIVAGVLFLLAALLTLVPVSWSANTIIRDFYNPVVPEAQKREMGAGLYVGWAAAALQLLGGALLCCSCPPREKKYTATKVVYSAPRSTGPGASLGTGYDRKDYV

T2: recombinant human claudin-1 (human, UniProt O95832 1-211, limits assumed)
T2 construct: Expressed and purified as in Vecchio & Stroud 2019, in beta-DDM detergent; also called CLDN1
T2 sequence: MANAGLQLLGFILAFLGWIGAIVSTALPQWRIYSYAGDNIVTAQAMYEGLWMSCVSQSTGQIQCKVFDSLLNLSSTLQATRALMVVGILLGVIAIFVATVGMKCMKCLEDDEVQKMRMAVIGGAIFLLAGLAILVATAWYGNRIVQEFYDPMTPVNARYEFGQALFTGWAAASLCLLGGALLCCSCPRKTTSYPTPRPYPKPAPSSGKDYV


Experiments:
human claudin-3 = target: T1, human claudin-3; test: Microscale thermophoresis (MST) binding; settings: 0.1% beta-UDM buffer
Description: Human claudin-1 was expressed and purified as reported previously (Vecchio & Stroud, 2019, PNAS USA, 116:17817-24). MST measurements were performed using a Monolith instrument (NanoTemper Technologies). For experiments with human claudin-1, the assay buffer contained 10 mM Tris HCl, pH 8.0, 100 mM NaCl, 4% glycerol, and 0.04% n-Dodecyl-β-D-Maltopyranoside (β-DDM). NPs and peptides were labeled with AF647 prior to MST analysis as described above. For the binding experiments, the concentration of human claudin-1 was varied from 2.2-73,500 nM and the AF647-labeled C1C2-NP was fixed at 70 nM, while the AF647 labeled NPs and AF647 labeled C1C2 peptide were fixed at 1 and 0.3 μM, respectively. Binding of the AF647 labeled C1C2-NP to human claudin-3, -4, and -9 were tested using 0.4-14000 nM, 0.8-28000 nM, and 0.6-20000 nM, respectively; with the AF647 labeled C1C2-NP fixed at 70 nM. This assay buffer was similar, except β-DDM was replaced with 0.1% n-Undecyl-β-D-Maltopyranoside (beta-UDM). In order to check non-specific binding of β-DDM micelles to the AF647 labeled C1C2-NP, the concentration of beta-DDM was varied from 0.03-900 μM and the concentration of the AF647-labeled C1C2-NP was fixed at 1 μM. A similar experiment was performed wherein the concentration of beta-UDM was varied from 0.3-10,000 μM and the concentration of AF647-labeled control NP was fixed at 1 μM. The non-specific binding of human claudins 4 and 9 to the NP was examined by varying the concentrations of human claudins 4 and 9 from 0.7-20,100 nM and 0.8-31,100 nM, respectively. The human claudin sub-dilutions were mixed with the NPs or peptides and loaded in standard monolith NT.115 capillary tubes for measurement. All experiments were conducted at 23° C. using the nano-red channel of the Monolith instrument and the data were analyzed by using either Monolith analysis software or Graph Pad Prism, version 9 (Graph Pad Software, San Diego, California).

[1] = target: T2, recombinant human claudin-1; test: microscale thermophoresis, AF647 labeled C1C2-NP fixed at 70 nM, human claudin-1 titrated 2.2-73,500 nM
Description: For the binding experiments, the concentration of human claudin-1 was varied from 2.2-73,500 nM and the AF647-labeled C1C2-NP was fixed at 70 nM, while the AF647 labeled NPs and AF647 labeled C1C2 peptide were fixed at 1 and 0.3 μM, respectively. Binding of the AF647 labeled C1C2-NP to human claudin-3, -4, and -9 were tested using 0.4-14000 nM, 0.8-28000 nM, and 0.6-20000 nM, respectively; with the AF647 labeled C1C2-NP fixed at 70 nM. This assay buffer was similar, except β-DDM was replaced with 0.1% n-Undecyl-β-D-Maltopyranoside (beta-UDM). In order to check non-specific binding of β-DDM micelles to the AF647 labeled C1C2-NP, the concentration of beta-DDM was varied from 0.03-900 μM and the concentration of the AF647-labeled C1C2-NP was fixed at 1 μM. A similar experiment was performed wherein the concentration of beta-UDM was varied from 0.3-10,000 μM and the concentration of AF647-labeled control NP was fixed at 1 μM. […] All experiments were conducted at 23° C. using the nano-red channel of the Monolith instrument and the data were analyzed by using either Monolith analysis software or Graph Pad Prism, version 9 (Graph Pad Software, San Diego, California).
To assess the binding affinity of C1C2-NPs to human claudin-1, C1C2-NPs were labeled with AF647 and binding to recombinant human claudin-1 quantified using MST. […]

| Binding to human claudin 3 (in words) (human claudin-3; listed as AF647-C1C2-NP) | Binding to human claudin 3 (in words) (human claudin-3; listed as C1C2-NPs) | Kd [1] [µM] | Molecule |
| --- | --- | --- | --- |
| does not show any binding | undefined 95% confidence intervals | – | C1C2-NP: PEG diacid coated ultrasmall Gd NP conjugated with C1C2 peptide SSVSQSTGQIQSKVDSLLNLNSTQATR (SEQ ID NO: 6); claudin-1 targeted (Ac-SSVSQSTGQIQSKVDSLLNLNSTQATR-NH2; also: conjugated to PEG diacid coated ultrasmall Gd nanoparticle) |
| – | – | 21 | Ac-SSVSQSTGQIQSKVDSLLNLNSTQATR-NH2 (not fully specified; also: conjugated by EDC-NHS chemistry to PEG diacid on Gd oxide nanoparticle surface (19 peptides per 3.5 nm particle), The protein part is the C1C2 peptide; the core is not a protein; also called C1C2-NPs; C1C2 NPs) [C1C2-NP (C1C2 peptide conjugated to PEG diacid coated ultrasmall Gd nanoparticles)] |
